In publication PMC9482650, “Quantitative fragmentomics allow affinity mapping of interactomes” (Nature Communications, 2022):

T1: HTRA4, P83105
T1 sequence (P83105 378-476, limits assumed, looked up): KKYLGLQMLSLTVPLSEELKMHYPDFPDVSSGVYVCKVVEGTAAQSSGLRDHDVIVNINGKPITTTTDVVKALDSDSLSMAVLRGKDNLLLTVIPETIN

T2: DFNB31_1, Q9P202
T2 sequence (Q9P202 135-233, limits assumed, looked up): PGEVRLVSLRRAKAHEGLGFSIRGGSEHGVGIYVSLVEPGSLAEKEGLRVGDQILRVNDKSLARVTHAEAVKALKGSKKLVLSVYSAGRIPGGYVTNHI

T3: TIAM2, Q8IVF5
T3 sequence (Q8IVF5 885-986, limits assumed, looked up): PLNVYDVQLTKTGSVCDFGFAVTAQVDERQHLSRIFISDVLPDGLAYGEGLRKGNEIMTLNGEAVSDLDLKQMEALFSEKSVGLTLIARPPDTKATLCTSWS

T4: MPDZ_10, O75970
T4 sequence (O75970 1624-1722, limits assumed, looked up): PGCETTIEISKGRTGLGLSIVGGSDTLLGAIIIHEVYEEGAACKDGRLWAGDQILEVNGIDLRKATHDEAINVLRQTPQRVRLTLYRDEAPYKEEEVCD

T5: LIN7B, Q9HAP6
T5 sequence (Q9HAP6 88-185, limits assumed, looked up): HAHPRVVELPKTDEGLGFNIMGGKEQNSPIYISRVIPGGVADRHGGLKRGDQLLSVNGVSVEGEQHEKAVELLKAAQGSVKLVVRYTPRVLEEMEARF

T6: RAPGEF6, Q8TEU7
T6 sequence (Q8TEU7 525-625, limits assumed, looked up): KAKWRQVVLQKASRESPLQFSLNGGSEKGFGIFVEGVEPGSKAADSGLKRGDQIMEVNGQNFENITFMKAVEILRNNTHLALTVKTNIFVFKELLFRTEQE

T7: DVL3, Q92997
T7 sequence (Q92997 244-331, limits assumed, looked up): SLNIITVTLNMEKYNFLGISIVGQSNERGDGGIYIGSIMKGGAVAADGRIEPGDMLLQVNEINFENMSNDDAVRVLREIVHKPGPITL

T8: SNTA1, Q13424
T8 sequence (Q13424 82-180, limits assumed, looked up): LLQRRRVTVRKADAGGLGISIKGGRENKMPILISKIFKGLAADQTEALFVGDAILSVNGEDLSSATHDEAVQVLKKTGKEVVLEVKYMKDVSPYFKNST

T9: DLG3_3, Q92796
T9 sequence (Q92796 374-475, limits assumed, looked up): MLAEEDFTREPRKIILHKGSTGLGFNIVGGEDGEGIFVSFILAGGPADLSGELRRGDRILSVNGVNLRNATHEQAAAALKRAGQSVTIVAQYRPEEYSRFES

T10: SNTG1, Q9NSN8
T10 sequence (Q9NSN8 52-150, limits assumed, looked up): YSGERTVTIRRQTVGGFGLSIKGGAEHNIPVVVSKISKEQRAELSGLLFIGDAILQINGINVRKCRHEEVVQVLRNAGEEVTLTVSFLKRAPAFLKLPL

T11: NHERF3_1, Q5T2W1
T11 sequence (Q5T2W1 4-100, limits assumed, looked up): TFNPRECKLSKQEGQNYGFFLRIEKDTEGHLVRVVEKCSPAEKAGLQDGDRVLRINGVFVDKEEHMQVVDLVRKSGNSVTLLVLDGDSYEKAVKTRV

T12: SNTG2, Q9NY99
T12 sequence (Q9NY99 68-166, limits assumed, looked up): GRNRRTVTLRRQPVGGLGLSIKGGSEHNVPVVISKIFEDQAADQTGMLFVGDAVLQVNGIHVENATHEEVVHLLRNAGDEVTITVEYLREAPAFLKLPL

T13: DFNB31_2, Q9P202
T13 sequence (Q9P202 274-371, limits assumed, looked up): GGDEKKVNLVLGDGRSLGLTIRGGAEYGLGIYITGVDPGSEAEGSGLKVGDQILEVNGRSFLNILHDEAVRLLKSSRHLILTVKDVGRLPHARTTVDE

B1: SEMA4F, O95754 (peptide)
chain: PLATCDETSI
B2: SDC3, O75056 (peptide)
chain: KPDKQEEFYA

Each binder was assayed against T1, HTRA4, P83105 (assay: holdup assay). Conditions: plain residues with an end cap or a label only (N-terminal biotin on a linker: ado-ado).
Set-up: key: below the threshold = too weak to quantify, mostly under pKd 3.1 to 4

pKd	Binder
below the threshold	B1
below the threshold	B2

Each binder was assayed against Inadl_8, Q8NI35 (assay: holdup assay). Conditions: plain residues with an end cap or a label only (N-terminal biotin on a linker: ado-ado).
Sequence of Inadl_8, Q8NI35 (Q8NI35 1425-1530): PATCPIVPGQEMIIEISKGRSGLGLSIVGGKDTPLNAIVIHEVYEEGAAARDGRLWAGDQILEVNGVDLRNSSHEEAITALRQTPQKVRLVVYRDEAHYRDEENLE
Set-up: key: below the threshold = too weak to quantify, mostly under pKd 3.1 to 4

pKd	Binder
below the threshold	B1
below the threshold	B2

Each binder was assayed against T2, DFNB31_1, Q9P202 (assay: holdup assay). Conditions: plain residues with an end cap or a label only (N-terminal biotin on a linker: ado-ado).
Set-up: key: below the threshold = too weak to quantify, mostly under pKd 3.1 to 4

pKd	Binder
5.13	B1
below the threshold	B2

The binders below were run against NOS1, P29475 (assay: holdup assay). Conditions: plain residues with an end cap or a label only (N-terminal biotin on a linker: ado-ado).
Sequence of NOS1, P29475 (P29475 9-101): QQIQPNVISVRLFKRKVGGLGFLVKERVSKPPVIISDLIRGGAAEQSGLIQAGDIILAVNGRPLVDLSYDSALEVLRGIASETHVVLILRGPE
Set-up: key: below the threshold = too weak to quantify, mostly under pKd 3.1 to 4

pKd	Binder
below the threshold	B1
below the threshold	B2

What follows are binders tested against T3, TIAM2, Q8IVF5 (assay: holdup assay). Conditions: plain residues with an end cap or a label only (N-terminal biotin on a linker: ado-ado).
Set-up: key: below the threshold = too weak to quantify, mostly under pKd 3.1 to 4

pKd	Binder
4.08	B1
4.04	B2

Each binder was assayed against FRMPD2_3, Q68DX3 (assay: holdup assay). Conditions: plain residues with an end cap or a label only (N-terminal biotin on a linker: ado-ado).
Sequence of FRMPD2_3, Q68DX3 (Q68DX3 1073-1166): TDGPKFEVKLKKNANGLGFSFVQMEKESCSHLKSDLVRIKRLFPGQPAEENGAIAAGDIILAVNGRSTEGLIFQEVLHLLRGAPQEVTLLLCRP
Set-up: key: below the threshold = too weak to quantify, mostly under pKd 3.1 to 4

pKd	Binder
below the threshold	B1
below the threshold	B2

What follows are binders tested against DLG5_1, Q8TDM6 (assay: holdup assay). Conditions: plain residues with an end cap or a label only (N-terminal biotin on a linker: ado-ado).
Sequence of DLG5_1, Q8TDM6 (Q8TDM6 617-713): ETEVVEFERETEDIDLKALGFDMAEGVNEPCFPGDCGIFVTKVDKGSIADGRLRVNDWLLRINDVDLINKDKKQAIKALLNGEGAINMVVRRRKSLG
Set-up: key: below the threshold = too weak to quantify, mostly under pKd 3.1 to 4

pKd	Binder
below the threshold	B1
below the threshold	B2

Each binder was assayed against SCRIB_1, Q14160 (assay: holdup assay). Conditions: plain residues with an end cap or a label only (N-terminal biotin on a linker: ado-ado).
Sequence of SCRIB_1, Q14160 (Q14160 718-814): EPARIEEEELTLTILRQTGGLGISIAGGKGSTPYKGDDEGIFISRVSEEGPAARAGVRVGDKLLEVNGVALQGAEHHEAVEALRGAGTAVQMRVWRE
Set-up: key: below the threshold = too weak to quantify, mostly under pKd 3.1 to 4

pKd	Binder
4.92	B1
below the threshold	B2

The binders below were run against T4, MPDZ_10, O75970 (assay: holdup assay). Conditions: plain residues with an end cap or a label only (N-terminal biotin on a linker: ado-ado).
Set-up: key: below the threshold = too weak to quantify, mostly under pKd 3.1 to 4

pKd	Binder
below the threshold	B1
below the threshold	B2

Each binder was assayed against T5, LIN7B, Q9HAP6 (assay: holdup assay). Conditions: plain residues with an end cap or a label only (N-terminal biotin on a linker: ado-ado).
Set-up: key: below the threshold = too weak to quantify, mostly under pKd 3.1 to 4

pKd	Binder
3.78	B1
3.78	B2

What follows are binders tested against LIMK2, P53671 (assay: holdup assay). Conditions: plain residues with an end cap or a label only (N-terminal biotin on a linker: ado-ado).
Sequence of LIMK2, P53671 (P53671 143-248): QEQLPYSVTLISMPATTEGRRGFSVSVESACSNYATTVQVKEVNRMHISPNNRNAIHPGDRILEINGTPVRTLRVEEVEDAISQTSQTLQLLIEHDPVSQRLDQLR
Set-up: key: below the threshold = too weak to quantify, mostly under pKd 3.1 to 4

pKd	Binder
below the threshold	B1
below the threshold	B2

These binders were tested against IL16_4, Q14005 (assay: holdup assay). Conditions: plain residues with an end cap or a label only (N-terminal biotin on a linker: ado-ado).
Sequence of IL16_4, Q14005 (Q14005 1229-1329): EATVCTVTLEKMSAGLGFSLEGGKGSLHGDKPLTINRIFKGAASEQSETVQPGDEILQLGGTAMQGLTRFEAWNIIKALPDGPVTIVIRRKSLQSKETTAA
Set-up: key: below the threshold = too weak to quantify, mostly under pKd 3.1 to 4

pKd	Binder
below the threshold	B1
below the threshold	B2

The binders below were run against PARD3_3, Q8TEW0 (assay: holdup assay). Conditions: plain residues with an end cap or a label only (N-terminal biotin on a linker: ado-ado).
Sequence of PARD3_3, Q8TEW0 (Q8TEW0 582-685): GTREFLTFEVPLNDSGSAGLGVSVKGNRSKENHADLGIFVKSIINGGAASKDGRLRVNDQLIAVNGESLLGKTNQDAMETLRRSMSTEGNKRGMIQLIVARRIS
Set-up: key: below the threshold = too weak to quantify, mostly under pKd 3.1 to 4

pKd	Binder
3.9	B1
below the threshold	B2

The binders below were run against PDLIM1, O00151 (assay: holdup assay). Conditions: plain residues with an end cap or a label only (N-terminal biotin on a linker: ado-ado).
Sequence of PDLIM1, O00151 (O00151 1-87): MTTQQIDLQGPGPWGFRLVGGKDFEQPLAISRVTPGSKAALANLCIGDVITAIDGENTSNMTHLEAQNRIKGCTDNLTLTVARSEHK
Set-up: key: below the threshold = too weak to quantify, mostly under pKd 3.1 to 4

pKd	Binder
below the threshold	B1
below the threshold	B2

Each binder was assayed against GRIP2_5, Q9C0E4 (assay: holdup assay). Conditions: plain residues with an end cap or a label only (N-terminal biotin on a linker: ado-ado).
Sequence of GRIP2_5, Q9C0E4 (Q9C0E4 544-642): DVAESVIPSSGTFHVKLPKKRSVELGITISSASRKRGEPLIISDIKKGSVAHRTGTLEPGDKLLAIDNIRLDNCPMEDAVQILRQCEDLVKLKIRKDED
Set-up: key: below the threshold = too weak to quantify, mostly under pKd 3.1 to 4

pKd	Binder
below the threshold	B1
below the threshold	B2

What follows are binders tested against T6, RAPGEF6, Q8TEU7 (assay: holdup assay). Conditions: plain residues with an end cap or a label only (N-terminal biotin on a linker: ado-ado).
Set-up: key: below the threshold = too weak to quantify, mostly under pKd 3.1 to 4

pKd	Binder
below the threshold	B1
below the threshold	B2

These binders were tested against T7, DVL3, Q92997 (assay: holdup assay). Conditions: plain residues with an end cap or a label only (N-terminal biotin on a linker: ado-ado).
Set-up: key: below the threshold = too weak to quantify, mostly under pKd 3.1 to 4

pKd	Binder
below the threshold	B1
below the threshold	B2

Each binder was assayed against GORASP2, Q9H8Y8 (assay: holdup assay). Conditions: plain residues with an end cap or a label only (N-terminal biotin on a linker: ado-ado).
Set-up: key: below the threshold = too weak to quantify, mostly under pKd 3.1 to 4

pKd	Binder
below the threshold	B1
below the threshold	B2

The binders below were run against T8, SNTA1, Q13424 (assay: holdup assay). Conditions: plain residues with an end cap or a label only (N-terminal biotin on a linker: ado-ado).
Set-up: key: below the threshold = too weak to quantify, mostly under pKd 3.1 to 4

pKd	Binder
4.01	B1
below the threshold	B2

These binders were tested against IL16_1, Q14005 (assay: holdup assay). Conditions: plain residues with an end cap or a label only (N-terminal biotin on a linker: ado-ado).
Sequence of IL16_1, Q14005 (Q14005 210-306): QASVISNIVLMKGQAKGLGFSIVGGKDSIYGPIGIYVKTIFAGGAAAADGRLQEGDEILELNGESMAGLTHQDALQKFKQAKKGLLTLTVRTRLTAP
Set-up: key: below the threshold = too weak to quantify, mostly under pKd 3.1 to 4

pKd	Binder
below the threshold	B1
below the threshold	B2

What follows are binders tested against T9, DLG3_3, Q92796 (assay: holdup assay). Conditions: plain residues with an end cap or a label only (N-terminal biotin on a linker: ado-ado).
Set-up: key: below the threshold = too weak to quantify, mostly under pKd 3.1 to 4

pKd	Binder
below the threshold	B1
below the threshold	B2

What follows are binders tested against T10, SNTG1, Q9NSN8 (assay: holdup assay). Conditions: plain residues with an end cap or a label only (N-terminal biotin on a linker: ado-ado).
Set-up: key: below the threshold = too weak to quantify, mostly under pKd 3.1 to 4

pKd	Binder
4.53	B1
below the threshold	B2

What follows are binders tested against T11, NHERF3_1, Q5T2W1 (assay: holdup assay). Conditions: plain residues with an end cap or a label only (N-terminal biotin on a linker: ado-ado).
Set-up: key: below the threshold = too weak to quantify, mostly under pKd 3.1 to 4

pKd	Binder
3.74	B1
below the threshold	B2

What follows are binders tested against T12, SNTG2, Q9NY99 (assay: holdup assay). Conditions: plain residues with an end cap or a label only (N-terminal biotin on a linker: ado-ado).
Set-up: key: below the threshold = too weak to quantify, mostly under pKd 3.1 to 4

pKd	Binder
4.55	B1
below the threshold	B2

What follows are binders tested against T13, DFNB31_2, Q9P202 (assay: holdup assay). Conditions: plain residues with an end cap or a label only (N-terminal biotin on a linker: ado-ado).
Set-up: key: below the threshold = too weak to quantify, mostly under pKd 3.1 to 4

pKd	Binder
below the threshold	B1
below the threshold	B2
